Source: publication doi:10.1101/2025.11.10.687720, “Magnetosome organelles are organized through interactions between McaA and McaB that alter the dynamics of the bacterial actin-like protein MamK” (bioRxiv, 2025)

Biological target: the molecule itself
Assay: co-sedimentation; pelleting assay, each protein at 1 μM in polymerization buffer (10 mM Tris-HCl pH 7.5, 25 mM KCl, 2 mM MgCl2, 1 mM DTT) with or without 1 mM ATP, 25°C for 10 min, 100,000 x g for 30 min at 4°C; SDS-PAGE of pellet and supernatant

B1: untagged recombinant MamK (natural protein, Magnetospirillum magneticum AMB-1, UniProt Q2W8Q6 1-347, looked up)
chain: MSEGEGQAKNRLFLGIDLGTSHTAVMSSRGKKFLLKSVVGYPKDVIGLKLLGRPYVVGDEAFEMRSYLDIRYPLQDGVLSEISDRDIEVARHLLTHVVKSAEPGPNDEICAVIGVPARASAANKALLLKMAQEVVHTALVVSEPFMVGYGLDKLINTIIVDIGAGTTDICALKGTVPGPEDQVTLTKAGNYVDERLQNAILERHPELQMNVNVACAVKEQFSFVGTPTEVASFEFRAAGKPVRADVTEPVKIACEALMPDIIESIETLLRSFQPEYQATVLQNIVFAGGGSRIRGLAAYVKEKLRPFGDANVTCVKDPTFDGCRGALRLAEELPPQYWRQLGDVSGS
notes: MamK, bacterial actin-like protein; 37.6 kDa as printed; The monomeric fractions were pooled; the protein forms filaments with ATP; also called purified MamK; MamK filaments; source: E. coli BL21, purified (ammonium sulfate precipitation, anion exchange, gel filtration)
binding result: binds
